From US20220331426A1, “METHODS OF TREATING CANCER USING TIGIT INHIBITORS AND ANTI-CANCER AGENTS” (Genentech, Inc., priority 2014, published 2022)

T1: human TIGIT (Homo sapiens, UniProt Q495A1)
T1 sequence (Q495A1 22-244): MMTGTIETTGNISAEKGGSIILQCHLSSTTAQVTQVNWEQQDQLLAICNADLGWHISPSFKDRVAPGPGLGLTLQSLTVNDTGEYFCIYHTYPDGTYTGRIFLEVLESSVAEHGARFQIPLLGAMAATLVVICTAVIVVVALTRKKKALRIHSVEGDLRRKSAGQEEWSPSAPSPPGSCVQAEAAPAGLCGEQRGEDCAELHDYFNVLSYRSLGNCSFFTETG


Target: T1, human TIGIT
Assay: binding of anti-TIGIT antibodies to human TIGIT
Details: hamster-anti-mouse anti-TIGIT antibodies; qualitative statement, no method given

Molecule	specific binding to human TIGIT
1F4: hamster-anti-mouse anti-TIGIT antibody; light chain SEQ ID NO:14, heavy chain SEQ ID NO:16 (antibody, V domains shown) VH: EVQLQQSGPELVKPGTSMKISCKASGYSFTGHLMNWVKQSHGKNLEWIGLIIPYNGGTSYNQKFKGKATLTVDKSSSTAYMELLSLTSDDSAVYFCSRGLRGFYAMDYWGQGTSVTVSS VL: DVVLTQTPLSLSVSFGDQVSISCRSSQSLVNSYGNTFLSWYLHKPGQSPQLLIFGISNRFSGVPDRFSGSGSGTDFTLKISTIKPEDLGMYYCLQGTHQPPTFGPGTKLEVK	specifically bound
10A7: hamster-anti-mouse anti-TIGIT antibody; light chain SEQ ID NO:13, heavy chain SEQ ID NO:15 (antibody, V domains shown) VH: EVQLVESGGGLTQPGKSLKLSCEASGFTFSSFTMHWVRQSPGKGLEWVAFIRSGSGIVFYADAVRGRFTISRDNAKNLLFLQMNDLKSEDTAMYYCARRPLGHNTFDSWGQGTLVTVSS VL: DIVMTQSPSSLAVSPGEKVTMTCKSSQSLYYSGVKENLLAWYQQKPGQSPKLLIYYASIRFTGVPDRFTGSGSGTDYTLTITSVQAEDMGQYFCQQGINNPLTFGDGTKLEIKR	specifically bound
